Data published in article PMC3229523, “Identification of Lactoferricin B Intracellular Targets Using an Escherichia coli Proteome Chip” (PLoS ONE, 2011).
Ends that are not written are not given here. * marks the point of attachment. Biotin = O=C1N[C@H]2[C@H](CS[C@H]2CCCCC(=O)*)N1

Tests used:
Test in all cases: peptide or protein array; E. coli proteome chip: purified His-tagged proteins printed in duplicate on Fullmoon slides, blocked with 1% BSA; 10 nM N-terminal biotinylated LfcinB with 1% BSA, room temperature, 1 h; detected with DyLight 649-labeled streptavidin, ratio to DyLight 549-labeled anti-His antibody; ProCAT normalisation, local cut-off; triplicate chips
Details in all cases: both partners purified
[1] = biological target: T1, YibN (E. coli K-12, UniProt P0AG27 1-143)
T1 construct: YibN, E. coli K-12
T1 sequence (looked up): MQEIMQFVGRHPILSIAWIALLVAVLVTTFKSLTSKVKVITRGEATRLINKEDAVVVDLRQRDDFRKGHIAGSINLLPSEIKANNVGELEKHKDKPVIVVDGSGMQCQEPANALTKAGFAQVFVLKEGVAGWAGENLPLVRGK

[2] = biological target: T2, ribonucleoside-diphosphate reductase 2, β subunit (E. coli K-12, UniProt P37146 1-319)
T2 construct: NrdF, ribonucleoside-diphosphate reductase 2, β subunit, E. coli K-12; no measurement of the oligomer here; also called NrdF
T2 sequence (P37146 whole entry): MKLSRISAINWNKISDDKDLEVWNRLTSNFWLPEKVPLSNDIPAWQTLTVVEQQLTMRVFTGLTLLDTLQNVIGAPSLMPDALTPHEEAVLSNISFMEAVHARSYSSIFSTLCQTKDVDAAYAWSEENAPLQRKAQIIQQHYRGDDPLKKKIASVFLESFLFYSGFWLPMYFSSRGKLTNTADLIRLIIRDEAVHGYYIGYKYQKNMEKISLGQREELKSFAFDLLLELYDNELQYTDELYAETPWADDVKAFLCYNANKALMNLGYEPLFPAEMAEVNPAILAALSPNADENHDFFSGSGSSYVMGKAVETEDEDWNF

[3] = biological target: T3, RecC (E. coli K-12, UniProt P07648 1-1122)
T3 construct: RecC, E. coli K-12
T3 sequence (looked up): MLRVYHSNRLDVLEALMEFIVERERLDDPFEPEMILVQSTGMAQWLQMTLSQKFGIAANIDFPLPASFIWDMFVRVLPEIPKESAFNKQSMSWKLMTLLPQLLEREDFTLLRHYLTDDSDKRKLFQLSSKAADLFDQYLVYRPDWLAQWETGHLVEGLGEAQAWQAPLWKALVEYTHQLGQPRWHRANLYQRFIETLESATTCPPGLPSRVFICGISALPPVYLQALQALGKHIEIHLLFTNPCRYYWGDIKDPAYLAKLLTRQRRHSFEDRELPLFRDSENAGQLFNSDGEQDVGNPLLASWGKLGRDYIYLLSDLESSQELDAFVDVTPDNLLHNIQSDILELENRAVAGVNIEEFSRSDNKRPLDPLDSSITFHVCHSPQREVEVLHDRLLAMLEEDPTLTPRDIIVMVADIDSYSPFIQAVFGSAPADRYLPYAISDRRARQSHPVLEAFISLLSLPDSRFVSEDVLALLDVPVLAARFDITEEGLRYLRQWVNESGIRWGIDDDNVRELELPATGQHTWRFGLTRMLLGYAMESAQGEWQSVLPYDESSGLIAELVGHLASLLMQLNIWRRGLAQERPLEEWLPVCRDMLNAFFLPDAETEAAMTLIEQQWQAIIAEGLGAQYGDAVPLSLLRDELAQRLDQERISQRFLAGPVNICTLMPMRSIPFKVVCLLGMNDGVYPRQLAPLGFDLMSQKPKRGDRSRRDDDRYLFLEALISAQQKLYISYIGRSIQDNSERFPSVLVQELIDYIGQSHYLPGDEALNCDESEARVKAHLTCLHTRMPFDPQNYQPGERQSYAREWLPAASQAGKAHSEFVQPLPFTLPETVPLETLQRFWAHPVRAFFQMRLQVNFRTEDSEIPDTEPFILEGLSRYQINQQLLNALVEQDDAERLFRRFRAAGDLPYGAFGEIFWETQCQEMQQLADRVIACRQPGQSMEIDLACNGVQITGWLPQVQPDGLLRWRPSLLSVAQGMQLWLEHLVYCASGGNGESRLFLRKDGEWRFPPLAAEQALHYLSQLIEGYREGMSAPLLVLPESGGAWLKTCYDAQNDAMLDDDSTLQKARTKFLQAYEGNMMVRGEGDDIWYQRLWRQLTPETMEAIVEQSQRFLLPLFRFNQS

[4] = biological target: T4, GldA (E. coli K-12, UniProt P0A9S5 1-367)
T4 construct: GldA, E. coli K-12
T4 sequence (looked up): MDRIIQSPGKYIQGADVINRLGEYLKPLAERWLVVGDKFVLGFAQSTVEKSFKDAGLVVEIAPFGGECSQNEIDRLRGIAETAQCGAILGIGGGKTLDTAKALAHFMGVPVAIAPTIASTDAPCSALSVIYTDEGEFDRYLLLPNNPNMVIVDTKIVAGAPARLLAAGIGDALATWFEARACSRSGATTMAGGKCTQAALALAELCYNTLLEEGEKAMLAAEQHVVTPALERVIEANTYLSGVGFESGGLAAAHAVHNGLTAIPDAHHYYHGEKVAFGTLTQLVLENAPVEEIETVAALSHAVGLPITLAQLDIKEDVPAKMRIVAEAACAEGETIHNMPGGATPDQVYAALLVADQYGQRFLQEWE

[5] = biological target: T5, Smg (E. coli K-12, UniProt P0A828 1-157)
T5 construct: Smg, E. coli K-12
T5 sequence (looked up): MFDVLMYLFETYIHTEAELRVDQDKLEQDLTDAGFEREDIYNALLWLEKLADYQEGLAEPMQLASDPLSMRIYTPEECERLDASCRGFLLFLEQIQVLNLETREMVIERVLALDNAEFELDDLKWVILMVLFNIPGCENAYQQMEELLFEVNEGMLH

Measured: binding result

B1: N-terminal biotinylated Lactoferricin B (peptide, UniProt P24627 36-60, looked up)
peptide: Biotin-FKCRRWQWRMKKLGAPSITCVRRAF
modifications: ends and bridges not checked
notes: lactoferricin B (LfcinB), cationic antimicrobial peptide of 25 amino acids; also called biotinylated LfcinB; biotin-labeled LfcinB; source: bought: Kelowna Inc
binds: all assays above
